From article PMC11730874

Assays:
KIF17-mCitrine, Q9P2E2 = molecular target: T1, KIF17-mCitrine, Q9P2E2; assay: pull-down (His-tag magnetic beads) with Western blot densitometry; settings: chain shown with the change; Rab23 proteins exchanged with GMPPNP; lysates from HEK293 cells transfected with KIF17-mCitrine; n = 3 independent experiments; parent: 100.00
T1 chain: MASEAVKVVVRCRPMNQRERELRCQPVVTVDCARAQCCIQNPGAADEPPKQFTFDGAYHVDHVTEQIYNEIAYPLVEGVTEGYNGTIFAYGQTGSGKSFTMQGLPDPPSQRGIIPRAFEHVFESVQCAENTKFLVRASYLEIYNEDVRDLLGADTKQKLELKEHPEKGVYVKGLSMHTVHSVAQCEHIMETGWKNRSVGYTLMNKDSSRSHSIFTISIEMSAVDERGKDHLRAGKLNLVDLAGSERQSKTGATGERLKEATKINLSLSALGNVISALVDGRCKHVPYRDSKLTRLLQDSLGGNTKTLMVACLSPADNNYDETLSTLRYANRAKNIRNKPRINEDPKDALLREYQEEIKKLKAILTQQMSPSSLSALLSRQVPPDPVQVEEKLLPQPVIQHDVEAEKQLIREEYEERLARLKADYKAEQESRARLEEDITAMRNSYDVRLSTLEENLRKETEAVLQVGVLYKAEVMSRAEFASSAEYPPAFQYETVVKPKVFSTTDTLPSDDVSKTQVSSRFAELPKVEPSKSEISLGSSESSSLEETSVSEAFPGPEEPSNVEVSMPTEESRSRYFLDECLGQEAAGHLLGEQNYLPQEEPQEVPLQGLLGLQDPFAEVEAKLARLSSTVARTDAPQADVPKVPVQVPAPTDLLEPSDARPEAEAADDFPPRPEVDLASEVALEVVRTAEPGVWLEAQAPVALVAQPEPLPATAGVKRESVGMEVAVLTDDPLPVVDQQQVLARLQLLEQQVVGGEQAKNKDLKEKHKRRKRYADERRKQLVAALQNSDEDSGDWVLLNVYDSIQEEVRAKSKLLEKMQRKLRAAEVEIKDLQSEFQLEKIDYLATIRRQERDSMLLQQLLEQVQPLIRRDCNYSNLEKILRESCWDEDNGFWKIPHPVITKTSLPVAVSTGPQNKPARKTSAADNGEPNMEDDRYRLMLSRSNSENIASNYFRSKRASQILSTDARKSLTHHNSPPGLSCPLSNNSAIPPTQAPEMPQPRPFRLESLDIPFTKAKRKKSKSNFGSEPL

[1] = molecular target: T2, WT hRab23_(7-172) (untagged) (human) (UniProt Q9ULC3)
T2 sequence: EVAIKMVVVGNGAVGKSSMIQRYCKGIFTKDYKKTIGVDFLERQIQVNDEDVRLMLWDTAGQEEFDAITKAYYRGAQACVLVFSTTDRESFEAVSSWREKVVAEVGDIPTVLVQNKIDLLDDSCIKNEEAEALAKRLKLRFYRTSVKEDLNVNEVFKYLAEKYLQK

[2] = molecular target: T3, hRab23_(7-172) Y79del (untagged) (human) (UniProt Q9ULC3)
T3 sequence: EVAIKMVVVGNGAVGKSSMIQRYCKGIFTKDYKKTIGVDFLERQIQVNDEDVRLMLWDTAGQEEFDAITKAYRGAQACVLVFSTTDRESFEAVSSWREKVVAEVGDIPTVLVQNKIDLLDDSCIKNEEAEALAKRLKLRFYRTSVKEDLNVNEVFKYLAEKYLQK

[3] = molecular target: T2, WT hRab23_(7-172) (untagged) (human); remark: listed apart in the source
[4] = molecular target: T3, hRab23_(7-172) Y79del (untagged) (human); remark: listed apart in the source

B1: His-SUMO-tagged WT hRab23_(7-172), GMPPNP-loaded, Q9ULC3 Y79del (protein)
chain: T3 sequence
- percent of parent (KIF17-mCitrine, Q9P2E2): 54.2%

B2: Inturned-Fuzzy (Intu-Fuz) complex (complex)
chain 1: MASVASCDSRPSSDELPGDPSSQEEDEDYDFEDRVSDSGSYSSASSDYDDLEPEWLDSVQKNGELFYLELSEDEEESLLPETPTVNHVRFSENEIIIEDDYKERKKYEPKLKQFTKILRRKRLLPKRCNKKNSNDNGPVSILKHQSNQKTGVIVQQRYKDVNVYVNPKKLTVIKAKEQLKLLEVLVGIIHQTKWSWRRTGKQGDGERLVVHGLLPGGSAMKSGQVLIGDVLVAVNDVDVTTENIERVLSCIPGPMQVKLTFENAYDVKRETSHPRQKKTQSNTSDLVKLLWGEEVEGIQQSGLNTPHIIMYLTLQLDSETSKEEQEILYHYPMSEASQKLKSVRGIFLTLCDMLENVTGTQVTSSSLLLNGKQIHVAYWKESDKLLLIGLPAEEVPLPRLRNMIENVIQTLKFMYGSLDSAFCQIENVPRLDHFFNLFFQRALQPAKLHSSASPSAQQYDASSAVLLDNLPGVRWLTLPLEIKMELDMALSDLEAADFAELSEDYYDMRRLYTILGSSLFYKGYLICSHLPKDDLIDIAVYCRHYCLLPLAAKQRIGQLIIWREVFPQHHLRPLADSSTEVFPEPEGRYFLLVVGLKHYMLCVLLEAGGCASKAIGSPGPDCVYVDQVKTTLHQLDGVDSRIDERLASSPVPCLSCADWFLTGSREKTDSLTTSPILSRLQGTSKVATSPTCRRTLFGDYSLKTRKPSPSCSSGGSDNGCEGGEDDGFSPHTTPDAVRKQRESQGSDGLEESGTLLKVTKKKSTLPNPFHLGNLKKDLPEKELEIYNTVKLTSGPENTLFHYVALETVQGIFITPTLEEVAQLSGSIHPQLIKNFHQCCLSIRAVFQQTLVEEKKKGLNSGDHSDSAKSVSSLNPVKEHGVLFECSPGNWTDQKKAPPVMAYWVVGRLFLHPKPQELYVCFHDSVTEIAIEIAFKLFFGLTL
chain 2: MGEEGTGGTVHLLCLAASSGVPLFCRSSRGGAPARQQLPFSVIGSLNGVHMFGQNLEVQLSSARTENTTVVWKSFHDSITLIVLSSEVGISELRLERLLQMVFGAMVLLVGLEELTNIRNVERLKKDLRASYCLIDSFLGDSELIGDLTQCVDCVIPPEGSLLQEALSGFAEAAGTTFVSLVVSGRVVAATEGWWRLGTPEAVLLPWLVGSLPPQTARDYPVYLPHGSPTVPHRLLTLTLLPSLELCLLCGPSPPLSQLYPQLLERWWQPLLDPLRACLPLGPRALPSGFPLHTDILGLLLLHLELKRCLFTVEPLGDKEPSPEQRRRLLRNFYTLVTSTHFPPEPGPPEKTEDEVYQAQLPRACYLVLGTEEPGTGVRLVALQLGLRRLLLLLSPQSPTHGLRSLATHTLHALTPLL
- GTPase-Glo luminescence (remaining GTP) relative to buffer control, GEF-aided nucleotide exchange; 3 uM Rab23, 2.25 uM Intu-Fuz, 5 uM GTP, 30 °C, 2 h [1]: 17.4%
- GTPase-Glo luminescence (remaining GTP) relative to buffer control, GEF-aided nucleotide exchange; 3 uM Rab23 Y79del, 2.25 uM Intu-Fuz, 5 uM GTP, 30 °C, 2 h [2]: 78.2%

B3: ecotropic viral integration site 5-like protein (EVI5L) (enzyme)
chain: MASPTLSPDSSSQEALSAPTCSPTSDSENLSPDELELLAKLEEQNRLLEADSKSMRSMNGSRRNSGSSLVSSSSASSNLSHLEEDTWILWGRIANEWEEWRRRKEKLLKELIRKGIPHHFRAIVWQLLCSATDMPVKNQYSELLKMSSPCEKLIRRDIARTYPEHEFFKGQDSLGQEVLFNVMKAYSLVDREVGYCQGSAFIVGLLLMQMPEEEAFCVFVRLMQEYRLRELFKPSMAELGLCIYQFEYMLQEQLPDLNTHFRSQSFHTSMYASSWFLTLFLTTFPLPVATRVFDIFMYEGLEIVFRVGLALLQVNQAELMQLDMEGMSQYFQRVIPHQFDSCPDKLVLKAYQVKYNPKKMKRLEKEYAAMKSKEMEEQIEIKRLRTENRLLKQRIETLEKGQVTRAQEAEENYVIKRELAVVRQQCSSAAEDLQKAQSTIRQLQEQQENPRLTEDFVSHLETELEQSRLRETETLGALREMQDKVLDMEKRNSSLPDENNVAQLQEELKALKVREGQAVASTRELKLQLQELSDTWQAHLARGGRWKESPRKLVVGELQDELMSVRLREAQALAEGRELRQRVVELETQDHIHRNLLNRVEAERAALQEKLQYLAAQNKGLQTQLSESRRKQAEAECKSKEEVMAVRLREADSMAAVAEMRQRIAELEIQREEGRIQGQLNHSDSSQYIRELKDQIEELKAEVRLLKGPPPFEDPLAFDGLSLARHLDEDSLPSSDEELLGVGVGAALQDALYPLSPRDARFFRRLERPAKDSEGSSDSDADELAAPYSQGLDN
- GTPase-Glo luminescence (remaining GTP) relative to buffer control, GAP-stimulated GTPase activity; 3 uM Rab23, 2.25 uM EVI5L, 5 uM GTP, 20 mM EDTA, 30 °C, 2 h [3]: 58%
- GTPase-Glo luminescence (remaining GTP) relative to buffer control, GAP-stimulated GTPase activity; 3 uM Rab23 Y79del, 2.25 uM EVI5L, 5 uM GTP, 20 mM EDTA, 30 °C, 2 h [4]: 75.7%
